Measured values as given in US20080267949A1, “Peptides capable of binding to serum proteins” (Ablynx N.V., priority 2006, published 2008).
Bridge positions count the residues as written; N and C are the ends. Ends that are not written are not given here.

Columns and labels:
[1] = target: T1, bovine serum albumin (BSA) (Bos taurus, UniProt P02769); test: Phage binding assay, cross-reactivity to bovine serum albumin; settings: different phage concentrations
T1 construct: purchased Sigma A6003
Method: (§1) After two selection rounds, monoclonal phage were screened for binding on HSA versus negative control antigen, ovalbumin (A5378, Sigma). Wells of a Maxisorp microtiter plate (Nunc) were coated using 10 μg/mL HSA or ovalbumin and blocked with SuperBlock T20 PBS Blocking Buffer (Pierce) to prevent non-specific binding. Phages, produced in 96-well plate, were diluted 1/10 in 1:1 (v:v) Superblock T20 PBS Blocking Buffer:PBS+0.05% Tween-20 and incubated on both HSA and ovalbumin. Bound phages were detected using anti-M13 (GE Healthcare) and goat anti-mouse IRDye700 (Rockland) and signals were read-out on Odyssey (LI-COR Biosciences). […] Both ‘hits’ were selected from the same library, i.e. originating from llama 117 in the non-constrained format. […] This peptide is referred to as 17D12. Its full amino acid sequence is given in SEQ ID NO: 1, and its encoding nucleotide sequence is given in SEQ ID NO:2. The amino acid sequence of the CDR3 loop is given in SEQ ID NO:3.
(§2) Binding of 17D12, as selected from primary screening after 2 selection rounds on HSA, to serum albumin of different species [mouse serum albumin (MSA, A3559, Sigma), cynomolgus serum albumin (CSA, in-house production), bovine serum albumin (BSA, A6003, Sigma) and HSA] and to negative control antigens [ovalbumin, human tumor necrosis factor α (TNF, in-house production)] was assessed using different phage concentrations. Additionally, similar binding studies were performed with two truncated variants of 17D12. Both peptides, i.e. 17D12-CDR3-NC (SEQ ID NO: 26) and 17D12-CDR3-C (SEQ ID NO;27), lack the flanking FR residues of 17D12 and the former is a non-constrained loop, whereas the latter is constrained (FIG. 4).
(§3) The phage binding assay was performed essentially as described in example 4.

[2] = target: T2, ovalbumin (Gallus gallus, UniProt P01012); test: Phage binding assay on coated negative control antigen ovalbumin; settings: for Binding to negative control ovalbumin (Example 4): 1/2 dilution series starting with 7.5×10^11 phages/mL; for Binding to negative control ovalbumin (Example 7): 1/2 dilution series starting with 10^12 phages/mL; for Non-specific binding to irrelevant protein ovalbumin (Example 5): different phage concentrations
T2 construct: purchased Sigma A5378
T2 sequence (P01012 1-386): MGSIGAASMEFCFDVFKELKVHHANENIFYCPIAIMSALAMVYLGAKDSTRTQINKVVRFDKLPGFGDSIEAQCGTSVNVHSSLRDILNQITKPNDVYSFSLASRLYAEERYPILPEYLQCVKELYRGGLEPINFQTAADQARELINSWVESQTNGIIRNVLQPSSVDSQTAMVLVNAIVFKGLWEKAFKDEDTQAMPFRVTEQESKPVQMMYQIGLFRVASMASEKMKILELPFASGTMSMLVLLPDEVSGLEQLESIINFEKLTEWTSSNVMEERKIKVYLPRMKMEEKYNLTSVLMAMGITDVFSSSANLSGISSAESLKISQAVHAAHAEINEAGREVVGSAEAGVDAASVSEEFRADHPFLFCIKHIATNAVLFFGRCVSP
Method: as §1
(§4) The phage binding assay was performed essentially as described in example 3. Phages, produced in 10 mL culture volume, were incubated on both HSA and ovalbumin in a ½ dilution series, starting with 7.5×10^11 phages/mL. […] Non-specific binding to ovalbumin is slightly higher for the constrained truncated peptide.
as §2, §3
(§5) The phage binding assay to HSA and ovalbumin was performed essentially as described in example 4. Phages, produced in 10 mL culture volume, were incubated on both HSA and ovalbumin in a ½ dilution series, starting with 10^12 phages/mL.

[3] = target: T3, human serum albumin (HSA) (Homo sapiens, UniProt P02768); test: Phage binding assay: peptide expressed on pIII of M13 phage, on coated HSA (anti-M13 detection, Odyssey read-out); settings: for Binding to HSA (Example 4): 1/2 dilution series starting with 7.5×10^11 phages/mL; for Binding to HSA (Example 7, VHH fusions on phage): 1/2 dilution series starting with 10^12 phages/mL; for Binding to HSA (Example 5, cross-reactivity): different phage concentrations
T3 construct: purchased Sigma A5763
Method: as §1, §4, §2, §3, §5

[4] = target: T4, cynomolgus serum albumin (CSA) (Macaca fascicularis, UniProt A2V9Z4); test: Phage binding assay, cross-reactivity to cynomolgus serum albumin; settings: different phage concentrations
T4 construct: made in house
Method: as §1, §2, §3

[5] = target: T5, human tumor necrosis factor α (TNF) (Homo sapiens, UniProt P01375); test: Phage binding assay, specificity against negative control antigen TNF; settings: different phage concentrations
T5 construct: made in house
Method: as §1, §2, §3

[6] = target: T6, mouse serum albumin (MSA) (Mus musculus, UniProt P07724); test: Phage binding assay, cross-reactivity to mouse serum albumin; settings: different phage concentrations
T6 construct: purchased Sigma A3559
Method: as §1, §2, §3

[7] = target: T7, ovalbumin (negative control antigen) (UniProt P01012 2-386); test: phage binding assay: ovalbumin coated on Maxisorp, M13 phage in 1/2 dilution series from 10^12 phages/mL, Odyssey intensity
T7 construct: Bought protein
T7 sequence (looked up): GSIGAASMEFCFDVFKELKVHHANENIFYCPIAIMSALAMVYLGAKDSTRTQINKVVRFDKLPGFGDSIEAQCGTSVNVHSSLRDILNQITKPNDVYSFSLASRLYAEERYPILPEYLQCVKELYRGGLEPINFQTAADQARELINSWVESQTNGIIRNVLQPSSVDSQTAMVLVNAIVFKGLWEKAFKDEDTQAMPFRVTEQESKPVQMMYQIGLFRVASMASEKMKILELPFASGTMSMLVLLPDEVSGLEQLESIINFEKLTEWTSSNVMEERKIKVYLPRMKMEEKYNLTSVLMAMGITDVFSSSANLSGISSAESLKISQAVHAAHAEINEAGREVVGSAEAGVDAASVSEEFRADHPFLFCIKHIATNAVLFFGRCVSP
Method: The phage binding assay to HSA and ovalbumin was performed essentially as described in example 4. Phages, produced in 10 mL culture volume, were incubated on both HSA and ovalbumin in a ½ dilution series, starting with 10¹² phages/mL. Dose-dependent binding to HSA was retained upon fusion of the peptide 17D12 at the C-terminus of a non-albumin binding intact VHH in the presence or absence of a GlySer linker (FIG. 9).

[8] = target: T8, human serum albumin (human, UniProt P02768 25-609); test: phage binding assay: 10 µg/mL HSA coated on Maxisorp, M13 phage displaying the peptide on pIII in 1/2 dilution series, anti-M13 + goat anti-mouse IRDye700, Odyssey intensity
T8 construct: Bought protein; also called HSA
Method: After two selection rounds, monoclonal phage were screened for binding on HSA versus negative control antigen, ovalbumin (A5378, Sigma). Wells of a Maxisorp microtiter plate (Nunc) were coated using 10 μg/mL HSA or ovalbumin and blocked with SuperBlock T20 PBS Blocking Buffer (Pierce) to prevent non-specific binding. Phages, produced in 96-well plate, were diluted 1/10 in 1:1 (v:v) Superblock T20 PBS Blocking Buffer:PBS+0.05% Tween-20 and incubated on both HSA and ovalbumin. Bound phages were detected using anti-M13 (GE Healthcare) and goat anti-mouse IRDye700 (Rockland) and signals were read-out on Odyssey (LI-COR Biosciences). […] This peptide is referred to as 17D12. Its full amino acid sequence is given in SEQ ID NO: 1, and its encoding nucleotide sequence is given in SEQ ID NO:2. The amino acid sequence of the CDR3 loop is given in SEQ ID NO:3.
as §4, with “7.5×10¹¹” for “7.5×10^11”

[9] = target: T9, cynomolgus serum albumin (cynomolgus, UniProt A2V9Z4 25-608); test: phage binding assay on coated Maxisorp wells, 5 phage dilutions per peptide (concentrations not given), Odyssey image
T9 construct: also called CSA; cynoSA
Method: as §2
(§6) The phage binding assay was performed essentially as described in example 4. Full length 17D12 peptide as well as truncated peptides, 17D12-CDR3-NC and 17D12-CDR3-C, bind dose-dependently to HSA and CSA, whereas reactivity to MSA and BSA was not apparent in the assay performed (FIG. 6). There is no significant non-specific binding of 17D12 and 17D12-CDR3-NC to irrelevant proteins tested (ovalbumin and TNF). In contrast, there is a subtle degree of non-specific binding with the constrained truncated peptide.

[10] = target: T10, bovine serum albumin (bovine, UniProt P02769 25-607); test: phage binding assay on coated Maxisorp wells, 5 phage dilutions per peptide, Odyssey image
T10 construct: also called BSA
Method: as §2, §6

[11] = target: T11, mouse serum albumin (mouse, UniProt P07724 25-608); test: as above
T11 construct: also called MSA
Method: as §2, §6

T1 sequence (P02769 25-607): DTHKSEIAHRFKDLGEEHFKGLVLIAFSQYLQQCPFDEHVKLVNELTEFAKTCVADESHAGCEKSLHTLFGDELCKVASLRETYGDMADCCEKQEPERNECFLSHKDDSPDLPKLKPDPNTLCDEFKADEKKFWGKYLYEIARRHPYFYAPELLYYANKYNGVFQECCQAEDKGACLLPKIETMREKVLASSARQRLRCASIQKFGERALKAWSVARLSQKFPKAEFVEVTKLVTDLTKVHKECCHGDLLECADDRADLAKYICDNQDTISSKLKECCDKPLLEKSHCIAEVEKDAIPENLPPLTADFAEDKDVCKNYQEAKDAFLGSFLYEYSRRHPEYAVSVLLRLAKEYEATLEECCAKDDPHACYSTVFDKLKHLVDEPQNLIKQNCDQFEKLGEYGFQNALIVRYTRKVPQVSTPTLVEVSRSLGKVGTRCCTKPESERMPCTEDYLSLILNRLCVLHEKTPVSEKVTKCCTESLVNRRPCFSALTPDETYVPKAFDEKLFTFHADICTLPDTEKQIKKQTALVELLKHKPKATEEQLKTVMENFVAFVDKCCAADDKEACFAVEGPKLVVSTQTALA
T6 sequence (P07724 25-608): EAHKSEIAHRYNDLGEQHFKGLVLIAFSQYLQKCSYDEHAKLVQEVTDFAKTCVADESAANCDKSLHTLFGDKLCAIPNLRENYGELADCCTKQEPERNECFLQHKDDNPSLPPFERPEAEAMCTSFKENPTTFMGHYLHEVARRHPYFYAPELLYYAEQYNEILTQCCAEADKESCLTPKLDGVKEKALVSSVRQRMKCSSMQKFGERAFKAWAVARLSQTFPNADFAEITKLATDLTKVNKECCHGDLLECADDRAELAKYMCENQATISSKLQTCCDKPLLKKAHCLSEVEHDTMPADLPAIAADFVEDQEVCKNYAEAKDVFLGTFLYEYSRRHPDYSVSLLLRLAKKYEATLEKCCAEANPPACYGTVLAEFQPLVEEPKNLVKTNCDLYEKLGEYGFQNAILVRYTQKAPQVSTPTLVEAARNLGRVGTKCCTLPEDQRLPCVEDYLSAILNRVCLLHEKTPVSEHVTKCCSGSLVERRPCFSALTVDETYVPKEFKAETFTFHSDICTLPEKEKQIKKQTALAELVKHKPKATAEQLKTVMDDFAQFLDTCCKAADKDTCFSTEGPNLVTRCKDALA
T5 sequence (P01375 77-233 limits assumed): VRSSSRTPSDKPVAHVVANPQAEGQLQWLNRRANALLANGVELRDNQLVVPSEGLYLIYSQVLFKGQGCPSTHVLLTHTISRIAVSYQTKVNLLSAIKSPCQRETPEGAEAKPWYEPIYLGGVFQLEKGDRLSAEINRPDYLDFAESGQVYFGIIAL
T4 sequence (A2V9Z4 25-608): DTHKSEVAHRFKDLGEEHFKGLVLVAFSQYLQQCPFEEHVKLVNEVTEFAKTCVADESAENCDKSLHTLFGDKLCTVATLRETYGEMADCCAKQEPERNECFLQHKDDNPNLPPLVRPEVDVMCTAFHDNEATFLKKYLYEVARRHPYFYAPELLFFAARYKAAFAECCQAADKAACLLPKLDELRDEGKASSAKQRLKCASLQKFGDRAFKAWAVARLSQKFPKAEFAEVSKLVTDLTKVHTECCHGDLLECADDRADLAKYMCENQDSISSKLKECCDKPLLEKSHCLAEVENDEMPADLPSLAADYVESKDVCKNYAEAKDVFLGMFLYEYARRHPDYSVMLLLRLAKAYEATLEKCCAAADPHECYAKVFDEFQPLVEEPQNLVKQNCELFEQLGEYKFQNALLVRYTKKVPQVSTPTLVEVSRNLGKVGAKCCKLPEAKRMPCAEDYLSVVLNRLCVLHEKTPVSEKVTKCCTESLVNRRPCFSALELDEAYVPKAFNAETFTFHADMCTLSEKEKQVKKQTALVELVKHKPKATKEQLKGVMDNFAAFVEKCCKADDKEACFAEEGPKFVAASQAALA
T10 sequence (P02769 25-607 limits assumed): as the sequence (P02769 25-607) above
T11 sequence (P07724 25-608 limits assumed): as the sequence (P07724 25-608) above
T9 sequence (A2V9Z4 25-608 limits assumed): as the sequence (A2V9Z4 25-608) above

Row | Molecule | Reactivity to BSA [1] | Binding to negative control ovalbumin (Example 4) [2] | Binding to negative control ovalbumin (Example 7) [2] | Non-specific binding to irrelevant protein ovalbumin (Example 5) [2] | Binding to HSA (Example 4) [3] | Binding to HSA (Example 7, VHH fusions on phage) [3] | Binding to HSA (Example 5, cross-reactivity) [3] | Binding to CSA [4] | Non-specific binding to irrelevant protein TNF [5] | Reactivity to MSA [6] | other results
1 | dtavyycnaaasysdydvfgggtdfgpwgqgtqv (DTAVYYCNAAASYSDYDVFGGGTDFGPWGQGTQV; also: displayed on M13 pIII; listed as Lama glama) [17D12] | not apparent | not to negative control peptide, ovalbumin | not to negative control peptide, ovalbumin | no significant non-specific binding | bind dose-dependently to HSA | bind dose-dependently to HSA | bind dose-dependently | bind dose-dependently | no significant non-specific binding | not apparent | Binding of monoclonal phage to ovalbumin (screening) ([2]; screening after two selection rounds on HSA, phages diluted 1/10): not to ovalbumin; Binding of monoclonal phage to HSA (screening) ([3]; screening after two selection rounds on HSA, phages diluted 1/10, signal/background ratio very low): bind to HSA
2 | 2D3-GlySer-17D12(S): 17D12 (FR3 Cys replaced with Ser) fused at C-terminus of VHH 2D3 via Gly4Ser-Gly3Ser linker, on M13 phage (GGGGSGGGSDTAVYYSNAAASYSDYDVFGGGTDFGPWGQGTQV; not fully specified (N-terminus); also: displayed on M13 phage) | – | – | not to negative control peptide, ovalbumin | – | – | bind dose-dependently to HSA | – | – | – | – | –
3 | 2D3-17D12(S): 17D12 (FR3 Cys replaced with Ser) fused at C-terminus of VHH 2D3 without linker, on M13 phage (DTAVYYSNAAASYSDYDVFGGGTDFGPWGQGTQV; not fully specified (N-terminus); also: displayed on M13 phage) | – | – | not to negative control peptide, ovalbumin | – | – | bind dose-dependently to HSA | – | – | – | – | –
4 | aaasysdydvfgggtdfgpa (AAASYSDYDVFGGGTDFGPA; also: displayed on M13 pIII) [17D12-CDR3-NC, truncated 17D12 lacking flanking FR residues, non-constrained loop, on M13 phage] | not apparent | not to negative control peptide, ovalbumin | – | no significant non-specific binding | bind dose-dependently to HSA | – | bind dose-dependently | bind dose-dependently | no significant non-specific binding | not apparent | –
5 | caaasysdydvfgggtdfgpac (CAAASYSDYDVFGGGTDFGPAC; disulfide 1-22 (inferred); also: displayed on M13 phage pIII) [17D12-CDR3-C, truncated 17D12 lacking flanking FR residues, constrained loop, on M13 phage] | not apparent | not to negative control peptide, ovalbumin | – | subtle degree of non-specific binding | bind dose-dependently to HSA | – | bind dose-dependently | bind dose-dependently | subtle degree of non-specific binding | not apparent | –
6 | DTAVYYSNAAASYSDYDVFGGGTDFGPWGQGTQV (other, not shown: large carriers, not fully specified (N-terminus); also: fused to C-terminus of VHH 2D3, displayed on M13 pIII, VHH-peptide fusion tested as phage; also called VHH-17D12(S)) | – | – | – | – | – | – | – | – | – | – | binding result [7]: no binding (tested: 100 x10^10 phage/mL)
7 | CAAASYSDYDVFGGGTDFGPAC (peptide, not shown: large carriers, disulfide 1-22; not fully specified, Tested as phage; also called constrained truncated peptide) | – | – | – | – | – | – | – | – | – | – | EC50 (read off the curve) [8]: ~6e+10 phage/mL; binding result [9]: binds; binding result [10]: no binding; binding result [11]: no binding
8 | GGGGSGGGSDTAVYYSNAAASYSDYDVFGGGTDFGPWGQGTQV (other, not shown: large carriers, not fully specified (N-terminus); also: fused to C-terminus of VHH 2D3, displayed on M13 pIII, VHH-peptide fusion tested as phage; also called VHH-GlySer-17D12(S)) | – | – | – | – | – | – | – | – | – | – | binding result [7]: no binding (tested: 100 x10^10 phage/mL)
